From paper PMC9482650, “Quantitative fragmentomics allow affinity mapping of interactomes” (Nature Communications, 2022)

How the values were obtained:
Assay in all cases: PDZ-AP-MS, biotinylated MBP-PDZ baits
Assay type in all cases: binding, human
HeLa cell extract preys = settings: for Ratio: fold enrichment of prey; for Difference: log2 enrichment of prey
Procedure: (§1) For PDZ-AP-MS experiments, PDZ domains were cloned as His6-AviTag-MBP-PDZ constructs. For co-expression with BirA, E. coli BL21(DE3) cells were co-transformed with His6-AviTag-MBP, or His6-AviTag-MBP-PDZ-coding and PET21a-BirA (Addgene #20857) plasmids. Simultaneously to IPTG induction, 50 µM biotin was added to the media. After cell harvesting, the lysis buffer was also supplemented with 50 µM biotin. Otherwise, expression and double affinity purification was identical as previously described in details.
(§2) For PBM-AP-MS experiments, 30 μl streptavidin resin was mixed with biotin or peptide at 50–60 μM concentration in 6–6.5 resin volume for 60 min to achieve resin saturation. For PDZ-AP-MS experiments, 30 μl streptavidin resin was mixed with biotinylated MBP or MBP-PDZ at 40-50 μM concentration in >1000× resin volume for 60 min to achieve resin saturation. After saturation, resins were washed a single time (ten resin volume, holdup buffer), and were depleted with biotin (1 mM biotin, 5–10 resin volume, 10 min). Finally, resins were washed two times. 0.5 ml 2 mg/ml cell lysate was added to the dry resin (1 mg total input) and were incubated at 4 °C for 2 h. Then, the beads were washed three times with 10 resin volume buffer containing: 50 mM TRIS pH 8.5, 150 mM NaCl, 1% TritonX-100, 10× complete EDTA-free protease inhibitor cocktail, 2 mM EDTA, 1 mM TCEP. Then, the beads were washed two times with ten resin volume buffer containing: 50 mM TRIS pH 8.5, 150 mM NaCl, 1 mM TCEP. Finally, captured protein was eluted from the resin in two steps and the eluted fractions were pooled. For each elution the beads were incubated for 30 min with three resin volume buffer containing: 20 mM TRIS pH8.5, 100 mM NaCl, 500 μM TCEP, 8 M Urea. Between each step, the beads were separated by mild centrifugation and the supernatant was removed by gentle pipetting.
(§3) The samples were precipitated with TCA 20% overnight at 4 °C and centrifuged at 14,000 rpm for 10 min at 4 °C. The protein pellets were washed twice with 1 mL cold acetone and air dried. The protein extracts were solubilized in urea 8 M, reduced with 5 mM TCEP for 30 min, and alkylated with 10 mM iodoacetamide for 30 min in the dark. Double digestion was performed at 37 °C with 500 ng endoproteinase Lys-C for 4 h, followed by fourfold dilution and an overnight digestion with 500 ng trypsin. Peptide mixtures were then desalted on C18 spin-column and dried on Speed-Vacuum.
(§4) Samples were analyzed using an Ultimate 3000 nano-RSLC (Thermo Scientific, San Jose California) coupled in line with a LTQ-Orbitrap ELITE mass spectrometer via a nano-electrospray ionization source (Thermo Scientific, San Jose California). Peptide mixtures were injected in 0.1% TFA on a C18 Acclaim PepMap100 trap-column (75 µm ID × 2 cm, 3 µm, 100 Å, Thermo Fisher Scientific) for 3 min at 5 µL/min with 2% ACN, 0.1% FA in H2O and then separated on a C18 Accucore nano-column (75 µm ID × 50 cm, 2.6 µm, 150 Å, Thermo Fisher Scientific) at 220 nl/min and 38 °C with a 90 min linear gradient from 5% to 30% buffer B (A: 0.1% FA in H2O/B: 99% ACN, 0.1% FA in H2O), regeneration at 5% B. The mass spectrometer was operated in positive ionization mode, in data-dependent mode with survey scans from m/z 350–1500 acquired in the Orbitrap at a resolution of 120,000 at m/z 400. The 20 most intense peaks from survey scans were selected for further fragmentation in the Linear Ion Trap with an isolation window of 2.0 Da and were fragmented by CID with normalized collision energy of 35%. (TOP20CID method) Unassigned and single charged states were excluded from fragmentation. The Ion Target Value for the survey scans (in the Orbitrap) and the MS2 mode (in the Linear Ion Trap) were set to 1E6 and 5E3 respectively and the maximum injection time was set to 100 ms for both scan modes. Dynamic exclusion was set to 20 s after one repeat count with mass width at ±10 ppm. […]

HaCat cell extract preys = settings: for Difference log2: bait TX1BP3 PDZ vs MBP, enrichment of prey; for Ratio TX1BP3/MBP: bait TX1BP3 PDZ, fold change of prey
Procedure: as §1, §2, §3, §4

[1] = test system: Jurkat cell extract preys; settings: for Difference log2: enrichment of prey
Procedure: as §1, §2, §3, §4

[2] = PDZ-AP-MS fold change of the PBM-protein prey, bait MBP-PDZ DLG1_1
[3] = PDZ-AP-MS fold change of the PBM-protein prey, bait MBP-PDZ DLG1_2
[4] = PDZ-AP-MS fold change of the PBM-protein prey, bait MBP-PDZ SCRIB_1
[5] = PDZ-AP-MS fold change of the PBM-protein prey, bait MBP-PDZ SCRIB_2
[6] = PDZ-AP-MS fold change of the PBM-protein prey, bait MBP-PDZ SNX27
[7] = PDZ-AP-MS fold change of the PBM-protein prey, bait MBP-PDZ TX1BP3

B1: CAPRIN1 (protein, UniProt Q14444 2-709, looked up)
Caprin-1: PSATSHSGSGSKSSGPPPPSGSSGSEAAAGAGAAAPASQHPATGTGAVQTEAMKQILGVIDKKLRNLEKKKGKLDDYQERMNKGERLNQDQLDAVSKYQEVTNNLEFAKELQRSFMALSQDIQKTIKKTARREQLMREEAEQKRLKTVLELQYVLDKLGDDEVRTDLKQGLNGVPILSEEELSLLDEFYKLVDPERDMSLRLNEQYEHASIHLWDLLEGKEKPVCGTTYKVLKEIVERVFQSNYFDSTHNHQNGLCEEEEAASAPAVEDQVPEAEPEPAEEYTEQSEVESTEYVNRQFMAETQFTSGEKEQVDEWTVETVEVVNSLQQQPQAASPSVPEPHSLTPVAQADPLVRRQRVQDLMAQMQGPYNFIQDSMLDFENQTLDPAIVSAQPMNPTQNMDMPQLVCPPVHSESRLAQPNQVPVQPEATQVPLVSSTSEGYTASQPLYQPSHATEQRPQKEPIDQIQATISLNTDQTTASSSLPAASQPQVFQAGTSKPLHSSGINVNAAPFQSMQTVFNMNAPVPPVNEPETLKQQNQYQASYNQSFSSQPHQVEQTELQQEQLQTVVGTYHGSPDQSHQVTGNHQQPPQQNTGFPRSNQPYYNSRGVSRGGSRGARGLMNGYRGPANGFRGGYDGYRPSFSNTPNSGYTQSQFSAPRDYSGYQRDGYQQNFKRGSGQSGPRGAPRGRGGPPRPNRGMPQMNTQQVN
HeLa cell extract preys; bait DLG1_1 PDZ vs MBP control
  Ratio: 30.4665
  Difference: 4.929

B2: TAX1BP3 (protein, UniProt O14907 2-124, looked up)
Tax1-binding protein 3: SYIPGQPVTAVVQRVEIHKLRQGENLILGFSIGGGIDQDPSQNPFSEDKTDKGIYVTRVSEGGPAEIAGLQIGDKIMQVNGWDMTMVTHDQARKRLTKRSEEVVRLLVTRQSLQKAVQQSMLS
HeLa cell extract preys; bait TX1BP3 PDZ vs MBP control
  Ratio: 86.5427
  Difference: 6.435
HaCat cell extract preys
  Difference log2: 10.0746
  Ratio TX1BP3/MBP: 1078.31
[1]; bait DLG1_1 PDZ vs MBP
  Difference log2: 4.078
[1]; bait DLG1_1 PDZ, fold change of prey
  Ratio DLG1_1 / MBP: 16.8941
[1]; bait TX1BP3 PDZ vs MBP
  Difference log2: 12.2171
[1]; bait TX1BP3 PDZ, fold change of prey
  Ratio TX1BP3/MBP: 4761.06

B3: TX1BP3 (protein, UniProt O14907 2-124, looked up)
Tax1-binding protein 3: SYIPGQPVTAVVQRVEIHKLRQGENLILGFSIGGGIDQDPSQNPFSEDKTDKGIYVTRVSEGGPAEIAGLQIGDKIMQVNGWDMTMVTHDQARKRLTKRSEEVVRLLVTRQSLQKAVQQSMLS
HaCat cell extract preys
  Difference log2: 9.132
  Ratio TX1BP3/MBP: 561.056

B4: ALDH9A1 (protein, UniProt P49189 1-494, looked up)
4-trimethylaminobutyraldehyde …: MSTGTFVVSQPLNYRGGARVEPADASGTEKAFEPATGRVIATFTCSGEKEVNLAVQNAKAAFKIWSQKSGMERCRILLEAARIIREREDEIATMECINNGKSIFEARLDIDISWQCLEYYAGLAASMAGEHIQLPGGSFGYTRREPLGVCVGIGAWNYPFQIASWKSAPALACGNAMVFKPSPFTPVSALLLAEIYSEAGVPPGLFNVVQGGAATGQFLCQHPDVAKVSFTGSVPTGMKIMEMSAKGIKPVTLELGGKSPLIIFSDCDMNNAVKGALMANFLTQGQVCCNGTRVFVQKEILDKFTEEVVKQTQRIKIGDPLLEDTRMGPLINRPHLERVLGFVKVAKEQGAKVLCGGDIYVPEDPKLKDGYYMRPCVLTNCRDDMTCVKEEIFGPVMSILSFDTEAEVLERANDTTFGLAAGVFTRDIQRAHRVVAELQAGTCFINNYNVSPVELPFGGYKKSGFGRENGRVTIEYYSQLKTVCVEMGDVESAF
HeLa cell extract preys; [2]
  Fold changes, HeLa, DLG1_1: 0.965
HeLa cell extract preys; [3]
  Fold changes, HeLa, DLG1_2: 0.6499
HeLa cell extract preys; [4]
  Fold changes, HeLa, SCRIB_1: 1.5654
HeLa cell extract preys; [5]
  Fold changes, HeLa, SCRIB_2: 0.9621
HeLa cell extract preys; [6]
  Fold changes, HeLa, SNX27: 23.2299
HeLa cell extract preys; [7]
  Fold changes, HeLa, TX1BP3: 0.8902
HaCat cell extract preys; [2]
  Fold changes, HaCat, DLG1_1: 0.7692
HaCat cell extract preys; [3]
  Fold changes, HaCat, DLG1_2: 1.032
HaCat cell extract preys; [4]
  Fold changes, HaCat, SCRIB_1: 3.899
HaCat cell extract preys; [5]
  Fold changes, HaCat, SCRIB_2: 0.6746
HaCat cell extract preys; [6]
  Fold changes, HaCat, SNX27: 57.4815
HaCat cell extract preys; [7]
  Fold changes, HaCat, TX1BP3: 0.8437
[1]; [2]
  Fold changes, Jurkat, DLG1_1: 0.4996
[1]; [3]
  Fold changes, Jurkat, DLG1_2: 10.9748
[1]; [4]
  Fold changes, Jurkat, SCRIB_1: 0.5795
[1]; [5]
  Fold changes, Jurkat, SCRIB_2: 0.6928
[1]; [6]
  Fold changes, Jurkat, SNX27: 23.7963
[1]; [7]
  Fold changes, Jurkat, TX1BP3: 0.5031
